The text below walks through data of PMC6145688.

This assay addresses Recombinant active autotaxin-β (ATXβ), Q13822. Description: cell adhesion assay; plates coated with recombinant ATXβ; cells in HEPES-buffered Tyrode solution with 2 mM Mn2+, rested 1 h at 37° C, seeded 1 h, attached cells counted; cells preincubated 1 h with blocking antibodies (10 µg/mL) or peptides (50 µg/mL). The following applies: remark: other sources report otherwise.

B1: Integrin αvβ3, P06756 31-1048; P05106 27-788 (receptor)
chain 1: FNLDVDSPAEYSGPEGSYFGFAVDFFVPSASSRMFLLVGAPKANTTQPGIVEGGQVLKCDWSSTRRCQPIEFDATGNRDYAKDDPLEFKSHQWFGASVRSKQDKILACAPLYHWRTEMKQEREPVGTCFLQDGTKTVEYAPCRSQDIDADGQGFCQGGFSIDFTKADRVLLGGPGSFYWQGQLISDQVAEIVSKYDPNVYSIKYNNQLATRTAQAIFDDSYLGYSVAVGDFNGDGIDDFVSGVPRAARTLGMVYIYDGKNMSSLYNFTGEQMAAYFGFSVAATDINGDDYADVFIGAPLFMDRGSDGKLQEVGQVSVSLQRASGDFQTTKLNGFEVFARFGSAIAPLGDLDQDGFNDIAIAAPYGGEDKKGIVYIFNGRSTGLNAVPSQILEGQWAARSMPPSFGYSMKGATDIDKNGYPDLIVGAFGVDRAILYRARPVITVNAGLEVYPSILNQDNKTCSLPGTALKVSCFNVRFCLKADGKGVLPRKLNFQVELLLDKLKQKGAIRRALFLYSRSPSHSKNMTISRGGLMQCEELIAYLRDESEFRDKLTPITIFMEYRLDYRTAADTTGLQPILNQFTPANISRQAHILLDCGEDNVCKPKLEVSVDSDQKKIYIGDDNPLTLIVKAQNQGEGAYEAELIVSIPLQADFIGVVRNNEALARLSCAFKTENQTRQVVCDLGNPMKAGTQLLAGLRFSVHQQSEMDTSVKFDLQIQSSNLFDKVSPVVSHKVDLAVLAAVEIRGVSSPDHVFLPIPNWEHKENPETEEDVGPVVQHIYELRNNGPSSFSKAMLHLQWPYKYNNNTLLYILHYDIDGPMNCTSDMEINPLRIKISSLQTTEKNDTVAGQGERDHLITKRDLALSEGDIHTLGCGVAQCLKIVCQVGRLDRGKSAILYVKSLLWTETFMNKENQNHSYSLKSSASFNVIEFPYKNLPIEDITNSTLVTTNVTWGIQPAPMPVPVWVIILAVLAGLLLLAVLVFVMYRMGFFKRVRPPQEEQEREQLQPHENGEGNSET
chain 2: GPNICTTRGVSSCQQCLAVSPMCAWCSDEALPLGSPRCDLKENLLKDNCAPESIEFPVSEARVLEDRPLSDKGSGDSSQVTQVSPQRIALRLRPDDSKNFSIQVRQVEDYPVDIYYLMDLSYSMKDDLWSIQNLGTKLATQMRKLTSNLRIGFGAFVDKPVSPYMYISPPEALENPCYDMKTTCLPMFGYKHVLTLTDQVTRFNEEVKKQSVSRNRDAPEGGFDAIMQATVCDEKIGWRNDASHLLVFTTDAKTHIALDGRLAGIVQPNDGQCHVGSDNHYSASTTMDYPSLGLMTEKLSQKNINLIFAVTENVVNLYQNYSELIPGTTVGVLSMDSSNVLQLIVDAYGKIRSKVELEVRDLPEELSLSFNATCLNNEVIPGLKSCMGLKIGDTVSFSIEAKVRGCPQEKEKSFTIKPVGFKDSLIVQVTFDCDCACQAQAEPNSHRCNNGNGTFECGVCRCGPGWLGSQCECSEEDYRPSQQDECSPREGQPVCSQRGECLCGQCVCHSSDFGKITGKYCECDDFSCVRYKGEMCSGHGQCSCGDCLCDSDWTGYYCNCTTRTDTCMSSNGLLCSGRGKCECGSCVCIQPGSYGDTCEKCPTCPDACTFKKECVECKKFDRGALHDENTCNRYCRDEIESVKELKDTGKDAVNCTYKNEDDCVVRFQYYEDSSGKSILYVVEEPECPKGPDILVVLLSVMGAILLIGLAALLIWKLLITIHDRKEFAKFEEERARAKWDTANNPLYKEATSTFTNITYRGT
Turning to B1, the percent inhibition of DU145 cell adhesion on ATXβ by LM609 (anti-αvβ3) was 60% and the percent inhibition of KHOS cell adhesion on ATXβ by LM609 (anti-αvβ3) is 15%.
